Sequences and labels used below:
B1: Rlp24 (ribosomal-like protein 24) on the pre-60S particle (natural protein)
chain: not shown
notes: Ribosomal-like protein 24 (Rlp24) of S. cerevisiae
B2: Drg1 (diazaborine resistance gene 1), wild type, purified (enzyme, S. cerevisiae)
chain: MAPKSSSSGSKKKSSASSNSADAKASKFKLPAEFITRPHPSKDHGKETCTAYIHPNVLSSLEINPGSFCTVGKIGENGILVIARAGDEEVHPVNVITLSTTIRSVGNLILGDRLELKKAQVQPPYATKVTVGSLQGYNILECMEEKVIQKLLDDSGVIMPGMIFQNLKTKAGDESIDVVITDASDDSLPDVSQLDLNMDDMYGGLDNLFYLSPPFIFRKGSTHITFSKETQANRKYNLPEPLSYAAVGGLDKEIESLKSAIEIPLHQPTLFSSFGVSPPRGILLHGPPGTGKTMLLRVVANTSNAHVLTINGPSIVSKYLGETEAALRDIFNEARKYQPSIIFIDEIDSIAPNRANDDSGEVESRVVATLLTLMDGMGAAGKVVVIAATNRPNSVDPALRRPGRFDQEVEIGIPDVDARFDILTKQFSRMSSDRHVLDSEAIKYIASKTHGYVGADLTALCRESVMKTIQRGLGTDANIDKFSLKVTLKDVESAMVDIRPSAMREIFLEMPKVYWSDIGGQEELKTKMKEMIQLPLEASETFARLGISAPKGVLLYGPPGCSKTLTAKALATESGINFLAVKGPEIFNKYVGESERAIREIFRKARSAAPSIIFFDEIDALSPDRDGSSTSAANHVLTSLLNEIDGVEELKGVVIVAATNRPDEIDAALLRPGRLDRHIYVGPPDVNARLEILKKCTKKFNTEESGVDLHELADRTEGYSGAEVVLLCQEAGLAAIMEDLDVAKVELRHFEKAFKGIARGITPEMLSYYEEFALRSGSSS
notes: Drg1 (AFG2), hexameric type-II AAA-ATPase of S. cerevisiae, wild type; Hexamer in the cryo-EM maps; also called DRG1 (AFG2); AAA-ATPase Drg1; source: overexpressed in yeast as GST fusion (CuSO4-induced), purified on GSH-agarose, eluted by Prescission protease cleavage
B3: Arx1 on the pre-60S particle (natural protein, UniProt Q03862 1-593, looked up)
chain: MALAISHEDTQILLKDKNILQESVLNKYRTAGQIAQTALKYVTSLINDSYHSKTTQRQLTVPELCLLTDSFILTRLEQYYKNKVNERGIAIPTTIDIDQISGGWCPEIDDTQNLLNWNKGKDSTFASSVTGTLRPGDLVKITLGVHIDGYTSEVSHTMVIYPVDETKPILQPTGPLLGGKADAVAAAHIAMETVVALLACALTPEKLPASLGGTSSGITGQLIRTIVDTIARSYNCGVVPGSRVRRIRRFLAGQNEGIVAEREYKGVVWTESHQEADLLSNTDAKDLTVVDRGQSTPFTNVSAIPSDDFVVQSGEVYLIDLKMASLEHCTKKGLVTLETVDSYTGKSHKAGELIARPGAYVRDFAQTHILKLKTSRQLLTKIDKQGVYPFKLSHLSSNFPFVHENEEELQSLKKDLKSFRLGMSEISNNYLCVESPIQIARWVPWDHILKATNPNGNLSYDATSTLTLPGHELPLPKLGVSAIKLKSLMNSTKESISLPVARECNTIVLCDSSVSTTDRPELLRLTGGSKTCQPSWIHSQHELNPQDSIVQGIFQLATLAKDKRFGLLLKETQPMKQKSVETSNGGVEETMKM
notes: Arx1 of S. cerevisiae, maturation factor at the exit of the polypeptide exit tunnel; source: endogenous, on pre-60S particles purified via Bud20-TAP from S. cerevisiae crm1^T539C after LmB treatment
B4: GST-Rlp24C (Rlp24 C domain, aa 146-199) (domain or fragment, S. cerevisiae, UniProt Q07915 146-199, looked up)
chain: AKEQERAESVSEQEESEEEEEDMEIDSDEEEEEQLEKQKILLKNRRRNTKKIAF
notes: Ribosomal-like protein 24 (Rlp24) of S. cerevisiae, C domain, aa 146-199; In the ATPase assays a HIS6-tagged Rlp24C made in E. coli was used instead of the GST fusion; source: purified
B5: Nog1 on the pre-60S particle (natural protein, UniProt Q02892 1-647, looked up)
chain: MQLSWKDIPTVAPANDLLDIVLNRTQRKTPTVIRPGFKITRIRAFYMRKVKYTGEGFVEKFEDILKGFPNINDVHPFHRDLMDTLYEKNHYKISLAAISRAKSLVEQVARDYVRLLKFGQSLFQCKQLKRAALGRMATIVKKLRDPLAYLEQVRQHIGRLPSIDPNTRTLLICGYPNVGKSSFLRCITKSDVDVQPYAFTTKSLYVGHFDYKYLRFQAIDTPGILDRPTEEMNNIEMQSIYAIAHLRSCVLYFMDLSEQCGFTIEAQVKLFHSIKPLFANKSVMVVINKTDIIRPEDLDEERAQLLESVKEVPGVEIMTSSCQLEENVMEVRNKACEKLLASRIENKLKSQSRINNVLNKIHVAQPQARDDVKRTPFIPESVKNLKKYDPEDPNRRKLARDIEAENGGAGVFNVNLKDKYLLEDDEWKNDIMPEILDGKNVYDFLDPEIAAKLQALEEEEEKLENEGFYNSDDEEEIYDGFEASEVDDIKEKAAWIRNRQKTMIAEARNRKSLKNKAIMPRSKLTKSFGKMEEHMSTLGHDMSALQDKQNRAARKNRYVERGSDVVFGDQDALTASTENGVKLRQTDRLLDGVADGSMRSKADRMAKMERRERNRHAKQGESDRHNAVSLSKHLFSGKRGVGKTDFR
notes: Nog1 of S. cerevisiae; source: endogenous, on pre-60S particles purified from S. cerevisiae via Bud20-TAP (cryo-EM, blots) or Arx1-TAP (cross-linking)
B6: GST-Rlp24C RKK>E (R191E, K195E, K196E) (domain or fragment, S. cerevisiae, UniProt Q07915 146-199, looked up)
chain: B4 chain with R46E, K50E, K51E
notes: Rlp24 of S. cerevisiae, C domain aa 146-199 with three exchanges in the tail; In the ATPase assay the HIS6-tagged form of this variant was used
B7: Bud20-TAP (natural protein, S. cerevisiae)
chain: MGRYSVKRYKTKRRTRDLDLIYNDLSTKESVQKLLNQPLDETKPGLGQHYCIHCAKYMETAIALKTHLKGKVHKRRVKELRGVPYTQEVSDAAAGYNLNKFLNRVQEITQSVGPEKESNEALLKEHLDSTLANVKTTEPTLPWAAADAEANTAAVTEAESTASAST
notes: Bud20 of S. cerevisiae; For cryo-EM the Protein A part of the tag was removed by TEV cleavage; source: expressed in S. cerevisiae crm1^T539C; bait of the pre-60S particle purification

Numbering of substitutions follows the chain as printed. Names may count otherwise.

The target in data set [1] is B5. Kind of data set: cryo-EM structure; purified Drg1 (1.75 mg/ml, 12 µM) mixed 1:1 with 200 nM export-competent Bud20-TAP pre-60S particles, 2 mM ATPγS, 10 minutes; particle-bound Drg1 and free Drg1 hexamers picked from the same dataset. The note with it: both partners purified.
Data set [2] deals with the molecule itself. The data set is described as above.
The target in data set [3] is export-competent pre-60S particle purified via Bud20-TAP (S. cerevisiae (endogenous in the yeast …, UniProt Q08004 1-166; Q07915 1-199; Q03862 1-593; Q02892 1-647; P38861 1-518; P33201 …, Partial protein list of a heterogeneous ~2.1 MDa endogenous particle: members named in the text plus L2-A, L3 and L4-A from the PDB 7Z34 candidate entities. Tif6 is not named in the text and is inferr). Kind of data set: SPR; Biacore X100; pre-60S particles captured through the Protein A moiety of Bud20-TAP on IgG immobilized on a CM3 chip; 25-150 nM Drg1 injected with 1 mM ATPγS; sigmoidal dose-response with variable slope on normalized RU. The conditions noted are these: both partners purified.

Data set [4] addresses B2. Nature of the data set: cryo-EM structure; purified Drg1 (1.75 mg/ml, 12 µM) mixed 1:1 with 200 nM export-competent Bud20-TAP pre-60S particles, 2 mM ATPγS, 10 minutes; particle-bound Drg1 and free Drg1 hexamers picked from the same dataset. The conditions noted are these: both partners purified.
Data set [5] has as its target B2. Nature of the data set: SPR; Biacore X100; GST-Rlp24C amine-coupled on a CM5 chip, GST in the reference cell; 75-10,000 nM Drg1 injected with 1 mM ATPγS; 20 mM HEPES, 10 mM KCl, 2.5 mM MgCl2, 100 mM NaCl, 0.05% Tween-20, 1 mM DTT, pH 7.5; one-site binding hyperbola on normalized RU. The note with it: both partners purified.
Data set [6] deals with B2. Nature of the data set: cross-linking; pre-60S particles purified via Arx1-TAP from drg1-18 (TEV eluate) incubated with 150 µg purified Drg1 and 1 mM ATPγS, cross-linked with 1.5 mM DSS or BS3 (isotopically labeled), 30 minutes, 30 °C; LC-MS/MS, xQuest/xProphet. The note with it: both partners purified.
In data set [7] the target is B2. Kind of data set: pull-down; GST-tagged bait on GSH-agarose beads; 80 µg Drg1 in 120 µl binding buffer (20 mM HEPES-KOH, 150 mM potassium acetate, 5 mM magnesium acetate, 0.1% Tween-20, 1 mM DTT, pH 6.8); 1 mM ATP or ATPγS or no nucleotide; 60 minutes, room temperature. The conditions noted are these: both partners purified.
Data set [8] deals with B1. Kind of data set: co-IP; affinity purification of pre-60S particles via Bud20-TAP from S. cerevisiae crm1^T539C (untreated, LmB and/or diazaborine; ARX1 or Δarx1 background), SDS-PAGE and western blotting. The note with it: partners not purified.

The source of these data is PMC9507969, “Visualizing maturation factor extraction from the nascent ribosome by the AAA-ATPase Drg1” (Nature Structural & Molecular Biology, 2022).

B1: in data set [1], the binding result is “binds”.
B2: in data set [2], the “stoichiometry N” value came out at 6. For the same molecule, the EC50 in data set [3] was determined as 46 nM.
For B3, the binding result in data set [4] is “binds”.
Consider B4, for which the Kd in data set [5] was found to be 2700 nM.
Turning to B5, in data set [6], the binding result was “binds”.
With B6, in data set [7], the binding result was “binds”.
For B7, the binding result in data set [8] is reported as “binds”.
